Laboratory results: the supplement of paper PMC9112550, “Optimization of the antimicrobial peptide Bac7 by deep mutational scanning” (BMC Biology, 2022)

tested on: Escherichia coli TOP10; test: shrunken log2 fold change of peptide-encoding DNA abundance (4.5 h post-induction vs induction); higher = less antimicrobial activity (less host growth inhibition); conditions: time post-induction: 4.5 h; library: site-saturation at positions 5, 18, 19, 20
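Note: peptides expressed intracellularly from a pBAD plasmid library in pooled LB shake-flask culture, induced with 0.3% L-arabinose, DNA abundance read by NGS, three biological replicates, DESeq2 with apeglm shrinkage.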

| Sequence | shrunken log2 fold change |
| --- | --- |
| RRIRLRPPRLPRPRPRPHMKPRP | -0.024 |
| RRIRLRPPRLPRPRPRPHNHPRP | -0.77 |
| RRIRLRPPRLPRPRPRPHPWPRP | -0.0939 |
| RRIRLRPPRLPRPRPRPHRFPRP | 0.0608 |
| RRIRLRPPRLPRPRPRPHRGPRP | -0.00203 |
| RRIRLRPPRLPRPRPRPHRKPRP | -0.295 |
| RRIRLRPPRLPRPRPRPHRTPRP | -0.0946 |
| RRIRLRPPRLPRPRPRPHSAPRP | -0.202 |
| RRIRLRPPRLPRPRPRPHSLPRP | 0.0368 |
| RRIRLRPPRLPRPRPRPHSNPRP | -0.443 |
| RRIRLRPPRLPRPRPRPHSVPRP | -0.0683 |
| RRIRLRPPRLPRPRPRPHTWPRP | -0.202 |
| RRIRLRPPRLPRPRPRPHVIPRP | 0.0211 |
| RRIRLRPPRLPRPRPRPHWWPRP | 0.148 |
| RRIRLRPPRLPRPRPRPHYNPRP | -0.779 |
| RRIRLRPPRLPRPRPRPICKPRP | -0.28 |
| RRIRLRPPRLPRPRPRPIEEPRP | 0.0311 |
| RRIRLRPPRLPRPRPRPIGIPRP | -0.179 |
| RRIRLRPPRLPRPRPRPIHRPRP | -0.163 |
| RRIRLRPPRLPRPRPRPIIFPRP | -0.288 |
| RRIRLRPPRLPRPRPRPIIVPRP | -0.0625 |
| RRIRLRPPRLPRPRPRPIMQPRP | -0.271 |
| RRIRLRPPRLPRPRPRPIPGPRP | 0.00419 |
| RRIRLRPPRLPRPRPRPIPRPRP | 0.0727 |
| RRIRLRPPRLPRPRPRPIRCPRP | -0.0375 |

| Sequence | shrunken log2 fold change |
| --- | --- |
| RRIRLRPPRLPRPRPRPIRDPRP | -0.0112 |
| RRIRLRPPRLPRPRPRPIRKPRP | -0.14 |
| RRIRLRPPRLPRPRPRPIRMPRP | -0.0243 |
| RRIRLRPPRLPRPRPRPISCPRP | -0.0691 |
| RRIRLRPPRLPRPRPRPISTPRP | -0.161 |
| RRIRLRPPRLPRPRPRPITQPRP | -0.264 |
| RRIRLRPPRLPRPRPRPITRPRP | 0.177 |
| RRIRLRPPRLPRPRPRPITSPRP | 0.0662 |
| RRIRLRPPRLPRPRPRPITYPRP | -0.266 |
| RRIRLRPPRLPRPRPRPIVDPRP | -0.103 |
| RRIRLRPPRLPRPRPRPIVWPRP | -0.027 |
| RRIRLRPPRLPRPRPRPIWMPRP | 0.0146 |
| RRIRLRPPRLPRPRPRPIWPPRP | 0.356 |
| RRIRLRPPRLPRPRPRPIYAPRP | 0.111 |
| RRIRLRPPRLPRPRPRPKANPRP | 0.0584 |
| RRIRLRPPRLPRPRPRPKCEPRP | 0.0288 |
| RRIRLRPPRLPRPRPRPKCMPRP | -0.152 |
| RRIRLRPPRLPRPRPRPKCPPRP | -0.193 |
| RRIRLRPPRLPRPRPRPKCRPRP | 0.147 |
| RRIRLRPPRLPRPRPRPKDNPRP | -0.303 |
| RRIRLRPPRLPRPRPRPKDVPRP | -0.0185 |
| RRIRLRPPRLPRPRPRPKEPPRP | -0.0333 |
| RRIRLRPPRLPRPRPRPKFCPRP | -0.0573 |
| RRIRLRPPRLPRPRPRPKFDPRP | -0.115 |
| RRIRLRPPRLPRPRPRPKFSPRP | -0.0419 |

| Sequence | shrunken log2 fold change |
| --- | --- |
| RRIRLRPPRLPRPRPRPKGDPRP | 0.182 |
| RRIRLRPPRLPRPRPRPKGHPRP | -0.0999 |
| RRIRLRPPRLPRPRPRPKHFPRP | -0.494 |
| RRIRLRPPRLPRPRPRPKHNPRP | -0.384 |
| RRIRLRPPRLPRPRPRPKIKPRP | -0.36 |
| RRIRLRPPRLPRPRPRPKKWPRP | 0.11 |
| RRIRLRPPRLPRPRPRPKLTPRP | 0.106 |
| RRIRLRPPRLPRPRPRPKMPPRP | -0.0152 |
| RRIRLRPPRLPRPRPRPKNHPRP | -0.269 |
| RRIRLRPPRLPRPRPRPKNPPRP | -0.606 |
| RRIRLRPPRLPRPRPRPKQCPRP | -0.0836 |
| RRIRLRPPRLPRPRPRPKRWPRP | 0.356 |
| RRIRLRPPRLPRPRPRPKSEPRP | 0.0422 |
| RRIRLRPPRLPRPRPRPKTWPRP | 0.108 |
| RRIRLRPPRLPRPRPRPKVDPRP | -0.00247 |
| RRIRLRPPRLPRPRPRPKVQPRP | 0.22 |
| RRIRLRPPRLPRPRPRPKVYPRP | -0.0494 |
| RRIRLRPPRLPRPRPRPKWVPRP | -0.25 |
| RRIRLRPPRLPRPRPRPKYIPRP | -0.603 |
| RRIRLRPPRLPRPRPRPLAMPRP | -0.218 |
| RRIRLRPPRLPRPRPRPLDMPRP | -0.358 |
| RRIRLRPPRLPRPRPRPLDNPRP | -0.293 |
| RRIRLRPPRLPRPRPRPLERPRP | -0.000861 |
| RRIRLRPPRLPRPRPRPLFMPRP | -0.546 |
| RRIRLRPPRLPRPRPRPLFPPRP | -0.203 |

| Sequence | shrunken log2 fold change |
| --- | --- |
| RRIRLRPPRLPRPRPRPLFSPRP | -0.588 |
| RRIRLRPPRLPRPRPRPLFTPRP | -0.232 |
| RRIRLRPPRLPRPRPRPLHHPRP | -0.533 |
| RRIRLRPPRLPRPRPRPLIEPRP | 0.0414 |
| RRIRLRPPRLPRPRPRPLIGPRP | 0.0224 |
| RRIRLRPPRLPRPRPRPLKHPRP | -0.161 |
| RRIRLRPPRLPRPRPRPLKLPRP | -0.117 |
| RRIRLRPPRLPRPRPRPLKTPRP | -0.0135 |
| RRIRLRPPRLPRPRPRPLLVPRP | -0.12 |
| RRIRLRPPRLPRPRPRPLMDPRP | -0.0257 |
| RRIRLRPPRLPRPRPRPLNQPRP | -0.917 |
| RRIRLRPPRLPRPRPRPLQDPRP | 0.0629 |
| RRIRLRPPRLPRPRPRPLQLPRP | 0.267 |
| RRIRLRPPRLPRPRPRPLQWPRP | 0.126 |
| RRIRLRPPRLPRPRPRPLRAPRP | 0.709 |
| RRIRLRPPRLPRPRPRPLRGPRP | 1.11 |
| RRIRLRPPRLPRPRPRPLRMPRP | 0.222 |
| RRIRLRPPRLPRPRPRPLSAPRP | 0.0846 |
| RRIRLRPPRLPRPRPRPLSTPRP | -0.471 |
| RRIRLRPPRLPRPRPRPLTNPRP | -0.325 |
| RRIRLRPPRLPRPRPRPLWDPRP | 0.466 |
| RRIRLRPPRLPRPRPRPLYEPRP | -0.488 |
| RRIRLRPPRLPRPRPRPLYLPRP | -0.837 |
| RRIRLRPPRLPRPRPRPLYMPRP | -0.763 |
| RRIRLRPPRLPRPRPRPLYRPRP | -0.0861 |

| Sequence | shrunken log2 fold change |
| --- | --- |
| RRIRLRPPRLPRPRPRPMAEPRP | 0.141 |
| RRIRLRPPRLPRPRPRPMAMPRP | 0.0591 |
| RRIRLRPPRLPRPRPRPMCDPRP | -0.481 |
| RRIRLRPPRLPRPRPRPMCLPRP | -0.166 |
| RRIRLRPPRLPRPRPRPMHRPRP | -0.274 |
| RRIRLRPPRLPRPRPRPMIDPRP | -0.0169 |
| RRIRLRPPRLPRPRPRPMIKPRP | 0.0349 |
| RRIRLRPPRLPRPRPRPMIMPRP | -0.159 |
| RRIRLRPPRLPRPRPRPMKRPRP | -0.0358 |
| RRIRLRPPRLPRPRPRPMLRPRP | 0.0543 |
| RRIRLRPPRLPRPRPRPMMPPRP | -0.174 |
| RRIRLRPPRLPRPRPRPMNIPRP | -0.504 |
| RRIRLRPPRLPRPRPRPMNVPRP | -0.839 |
| RRIRLRPPRLPRPRPRPMNYPRP | -0.0583 |
| RRIRLRPPRLPRPRPRPMPIPRP | 0.301 |
| RRIRLRPPRLPRPRPRPMPKPRP | -0.105 |
| RRIRLRPPRLPRPRPRPMPQPRP | 0.164 |
| RRIRLRPPRLPRPRPRPMPTPRP | 0.449 |
| RRIRLRPPRLPRPRPRPMQKPRP | -0.0247 |
| RRIRLRPPRLPRPRPRPMRKPRP | 0.651 |
| RRIRLRPPRLPRPRPRPMRPPRP | 1.44 |
| RRIRLRPPRLPRPRPRPMSKPRP | 0.0198 |
| RRIRLRPPRLPRPRPRPMSNPRP | -0.089 |
| RRIRLRPPRLPRPRPRPMSPPRP | 0.0855 |
| RRIRLRPPRLPRPRPRPMTKPRP | 0.0751 |

| Sequence | shrunken log2 fold change |
| --- | --- |
| RRIRLRPPRLPRPRPRPMVVPRP | -0.0179 |
| RRIRLRPPRLPRPRPRPMWFPRP | 0.106 |
| RRIRLRPPRLPRPRPRPMWIPRP | -0.199 |
| RRIRLRPPRLPRPRPRPMYDPRP | -0.787 |
| RRIRLRPPRLPRPRPRPMYPPRP | -0.0826 |
| RRIRLRPPRLPRPRPRPNADPRP | 0.126 |
| RRIRLRPPRLPRPRPRPNAQPRP | -0.0471 |
| RRIRLRPPRLPRPRPRPNCLPRP | -0.61 |
| RRIRLRPPRLPRPRPRPNDKPRP | -0.962 |
| RRIRLRPPRLPRPRPRPNDQPRP | -0.19 |
| RRIRLRPPRLPRPRPRPNGHPRP | -0.0365 |
| RRIRLRPPRLPRPRPRPNLGPRP | -0.0507 |
| RRIRLRPPRLPRPRPRPNLVPRP | -0.283 |
| RRIRLRPPRLPRPRPRPNNSPRP | -0.952 |
| RRIRLRPPRLPRPRPRPNPAPRP | -0.0363 |
| RRIRLRPPRLPRPRPRPNPHPRP | -0.07 |
| RRIRLRPPRLPRPRPRPNQFPRP | 0.0261 |
| RRIRLRPPRLPRPRPRPNQNPRP | -0.276 |
| RRIRLRPPRLPRPRPRPNQYPRP | -0.126 |
| RRIRLRPPRLPRPRPRPNRAPRP | 0.0133 |
| RRIRLRPPRLPRPRPRPNRTPRP | 0.0829 |
| RRIRLRPPRLPRPRPRPNRVPRP | -0.0939 |
| RRIRLRPPRLPRPRPRPNSAPRP | 0.0654 |
| RRIRLRPPRLPRPRPRPNSLPRP | -0.101 |
| RRIRLRPPRLPRPRPRPNSPPRP | -0.418 |
